The values that follow are results of earlier work, collected in article PMC3565385 (Journal of computer-aided molecular design, 2012).

The test system of this series is PTH1R. Particulars: ΔΔG = RT ln(Ki mutant/Ki wild-type) from published alanine scanning.

B1: PTH R20A: parathyroid hormone with Arg20 replaced by alanine (peptide, UniProt P01270 32-115, looked up, variant R20A)
Parathyroid hormone: SVSEIQLMHNLGKHLNSMEAVEWLRKKLQDVHNFVALGAPLAPRDAGSQRPRKKEDNVLVESHEKSLGEADKADVNVLTKAKSQ
modifications: Parathyroid hormone
For the molecule B1, the “experimental ΔΔG” value was 2.96 kcal/mol.
